Laboratory results as given in publication PMC8748612, “Maximizing response to intratumoral immunotherapy in mice by tuning local retention” (Nature Communications, 2022).

Each molecule was assayed against Collagen I (Gibco), coated on 96-well plates (UniProt P02454 152-1207; P02466 86-1125) (assay: ELISA). Details: not given.
Collagen I (Gibco), coated on 96-well plates, sequence (P02454 152-1207, chain 1 of 2): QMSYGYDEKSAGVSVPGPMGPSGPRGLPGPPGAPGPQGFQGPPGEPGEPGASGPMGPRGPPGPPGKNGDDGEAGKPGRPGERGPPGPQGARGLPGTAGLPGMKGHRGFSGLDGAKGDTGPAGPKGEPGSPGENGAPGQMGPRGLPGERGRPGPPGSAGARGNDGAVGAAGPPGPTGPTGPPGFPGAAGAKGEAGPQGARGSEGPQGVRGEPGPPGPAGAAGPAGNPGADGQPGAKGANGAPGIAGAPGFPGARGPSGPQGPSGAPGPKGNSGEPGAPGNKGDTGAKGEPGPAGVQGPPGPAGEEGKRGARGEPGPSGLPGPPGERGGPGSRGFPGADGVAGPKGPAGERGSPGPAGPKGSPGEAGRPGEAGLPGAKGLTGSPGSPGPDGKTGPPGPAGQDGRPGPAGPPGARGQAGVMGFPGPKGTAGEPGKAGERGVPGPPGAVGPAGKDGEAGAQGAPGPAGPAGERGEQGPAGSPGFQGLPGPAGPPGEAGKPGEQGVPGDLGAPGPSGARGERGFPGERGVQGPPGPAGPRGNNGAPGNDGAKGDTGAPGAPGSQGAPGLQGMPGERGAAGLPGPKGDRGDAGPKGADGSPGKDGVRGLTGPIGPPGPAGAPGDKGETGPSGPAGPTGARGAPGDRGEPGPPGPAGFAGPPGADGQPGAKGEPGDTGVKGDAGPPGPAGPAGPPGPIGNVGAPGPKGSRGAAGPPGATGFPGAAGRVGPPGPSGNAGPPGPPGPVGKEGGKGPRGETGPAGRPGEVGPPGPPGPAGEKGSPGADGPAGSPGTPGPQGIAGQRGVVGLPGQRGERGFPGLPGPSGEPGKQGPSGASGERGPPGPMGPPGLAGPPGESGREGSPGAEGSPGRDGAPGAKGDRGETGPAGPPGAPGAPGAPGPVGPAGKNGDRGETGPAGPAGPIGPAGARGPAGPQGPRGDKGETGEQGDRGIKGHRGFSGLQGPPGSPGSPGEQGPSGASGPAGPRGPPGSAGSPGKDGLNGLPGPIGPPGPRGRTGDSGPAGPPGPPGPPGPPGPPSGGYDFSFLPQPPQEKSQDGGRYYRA
Collagen I (Gibco), coated on 96-well plates, sequence (P02466 86-1125, chain 2 of 2): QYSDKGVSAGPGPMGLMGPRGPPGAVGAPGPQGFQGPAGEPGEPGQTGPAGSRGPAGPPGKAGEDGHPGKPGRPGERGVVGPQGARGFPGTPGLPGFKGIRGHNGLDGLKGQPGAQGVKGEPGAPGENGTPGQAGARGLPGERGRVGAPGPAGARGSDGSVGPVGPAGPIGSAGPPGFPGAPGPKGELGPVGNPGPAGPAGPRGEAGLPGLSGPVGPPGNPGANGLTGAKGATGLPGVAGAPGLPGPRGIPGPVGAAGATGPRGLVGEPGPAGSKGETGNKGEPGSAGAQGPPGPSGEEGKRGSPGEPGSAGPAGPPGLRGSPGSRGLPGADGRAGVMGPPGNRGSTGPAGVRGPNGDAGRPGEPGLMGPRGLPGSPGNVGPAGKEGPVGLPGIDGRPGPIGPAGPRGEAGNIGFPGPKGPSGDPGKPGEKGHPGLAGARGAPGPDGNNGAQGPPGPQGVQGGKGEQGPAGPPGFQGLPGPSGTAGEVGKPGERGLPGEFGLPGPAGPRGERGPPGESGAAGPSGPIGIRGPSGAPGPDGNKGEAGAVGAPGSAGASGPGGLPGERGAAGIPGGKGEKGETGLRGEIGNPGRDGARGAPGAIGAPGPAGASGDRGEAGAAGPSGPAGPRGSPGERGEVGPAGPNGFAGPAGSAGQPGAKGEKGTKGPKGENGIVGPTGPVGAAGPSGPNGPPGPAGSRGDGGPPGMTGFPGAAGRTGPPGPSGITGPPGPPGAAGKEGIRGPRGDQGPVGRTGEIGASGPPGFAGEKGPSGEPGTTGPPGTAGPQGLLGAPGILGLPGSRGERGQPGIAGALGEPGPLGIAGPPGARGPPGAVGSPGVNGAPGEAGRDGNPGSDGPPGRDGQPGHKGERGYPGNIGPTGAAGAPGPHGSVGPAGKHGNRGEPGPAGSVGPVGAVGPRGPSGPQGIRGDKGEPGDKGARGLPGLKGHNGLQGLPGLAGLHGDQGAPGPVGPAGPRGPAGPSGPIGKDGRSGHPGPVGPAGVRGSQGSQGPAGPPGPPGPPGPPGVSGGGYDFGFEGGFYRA

Molecule	Kd
LAIRx-LAIRx-MSA^H464Q-his (other) QEGSLPDITIFPNSSLMISQGTFVTVVCSYSDKHDLYNMVALAKDGSTFMEKSTEPYKTEDEFEIGPVNETITGHYSCIYSKGITWSERSKTLELKVIKENVIQTPAPGPTSDTSWLKTYSIYQEGSLPDITIFPNSSLMISQGTFVTVVCSYSDKHDLYNMVALAKDGSTFMEKSTEPYKTEDEFEIGPVNETITGHYSCIYSKGITWSERSKTLELKVIKENVIQTPAPGPTSDTSWLKTYSIYEAHKSEIAHRYNDLGEQHFKGLVLIAFSQYLQKCSYDEHAKLVQEVTDFAKTCVADESAANCDKSLHTLFGDKLCAIPNLRENYGELADCCTKQEPERNECFLQHKDDNPSLPPFERPEAEAMCTSFKENPTTFMGHYLHEVARRHPYFYAPELLYYAEQYNEILTQCCAEADKESCLTPKLDGVKEKALVSSVRQRMKCSSMQKFGERAFKAWAVARLSQTFPNADFAEITKLATDLTKVNKECCHGDLLECADDRAELAKYMCENQATISSKLQTCCDKPLLKKAHCLSEVEHDTMPADLPAIAADFVEDQEVCKNYAEAKDVFLGTFLYEYSRRHPDYSVSLLLRLAKKYEATLEKCCAEANPPACYGTVLAEFQPLVEEPKNLVKTNCDLYEKLGEYGFQNAILVRYTQKAPQVSTPTLVEAARNLGRVGTKCCTLPEDQRLPCVEDYLSAILNRVCLLQEKTPVSEHVTKCCSGSLVERRPCFSALTVDETYVPKEFKAETFTFHSDICTLPEKEKQIKKQTALAELVKHKPKATAEQLKTVMDDFAQFLDTCCKAADKDTCFSTEGPNLVTRCKDALA	> 1000 nM
LAIRx-his (domain or fragment) QEGSLPDITIFPNSSLMISQGTFVTVVCSYSDKHDLYNMVALAKDGSTFMEKSTEPYKTEDEFEIGPVNETITGHYSCIYSKGITWSERSKTLELKVIKENVIQTPAPGPTSDTSWLKTYSIY	> 1000 nM
LAIR-his (domain or fragment) QEGSLPDITIFPNSSLMISQGTFVTVVCSYSDKHDLYNMVRLEKDGSTFMEKSTEPYKTEDEFEIGPVNETITGHYSCIYSKGITWSERSKTLELKVIKENVIQTPAPGPTSDTSWLKTYSIY	102 nM

These molecules were tested against T1, collagen type I (UniProt P02454 152-1207; P02466 86-1125) (assay: ELISA; Collagen I (Gibco) coated 96-well plates; LAIR-MSA fusion proteins in PBSTA for 4 h at room temperature; detected with HRP-conjugated anti-6xHis; mean, n = 2). Details: not given.
T1 construct: collagen type I, alpha-1 chain; collagen type I, alpha-2 chain; two alpha-1 chains and one alpha-2 chain, and rat as the source, are surmised; also called Collagen I (Gibco); native collagen; source: bought: Gibco
T1 sequence (P02454 152-1207, chain 1 of 2): as the sequence (P02454 152-1207, chain 1 of 2) above
T1 sequence (P02466 86-1125, chain 2 of 2): as the sequence (P02466 86-1125, chain 2 of 2) above

Molecule	Kd
LAIR-MSA (from UniProt P07724 25-608)	17 nM

Same assay, conditions: both partners purified

Molecule	Kd
LAIR30.w.A V27A,D45G-MSA (other) QEGSLPDITIFPNSSLMISQGTFVTVACSYSDKHDLYNMVRLEKGGSTFMEKSTEPYKTEDEFEIGPVNETITGHYSCIYSKGITWSERSKTLELKVIKENVIQTPAPGPTSDTSWLKTYSIYEAHKSEIAHRYNDLGEQHFKGLVLIAFSQYLQKCSYDEHAKLVQEVTDFAKTCVADESAANCDKSLHTLFGDKLCAIPNLRENYGELADCCTKQEPERNECFLQHKDDNPSLPPFERPEAEAMCTSFKENPTTFMGHYLHEVARRHPYFYAPELLYYAEQYNEILTQCCAEADKESCLTPKLDGVKEKALVSSVRQRMKCSSMQKFGERAFKAWAVARLSQTFPNADFAEITKLATDLTKVNKECCHGDLLECADDRAELAKYMCENQATISSKLQTCCDKPLLKKAHCLSEVEHDTMPADLPAIAADFVEDQEVCKNYAEAKDVFLGTFLYEYSRRHPDYSVSLLLRLAKKYEATLEKCCAEANPPACYGTVLAEFQPLVEEPKNLVKTNCDLYEKLGEYGFQNAILVRYTQKAPQVSTPTLVEAARNLGRVGTKCCTLPEDQRLPCVEDYLSAILNRVCLLHEKTPVSEHVTKCCSGSLVERRPCFSALTVDETYVPKEFKAETFTFHSDICTLPEKEKQIKKQTALAELVKHKPKATAEQLKTVMDDFAQFLDTCCKAADKDTCFSTEGPNLVTRCKDALA	120 nM
LAIR30.w.F S90A-MSA (other) QEGSLPDITIFPNSSLMISQGTFVTVVCSYSDKHDLYNMVRLEKDGSTFMEKSTEPYKTEDEFEIGPVNETITGHYSCIYSKGITWSERAKTLELKVIKENVIQTPAPGPTSDTSWLKTYSIYEAHKSEIAHRYNDLGEQHFKGLVLIAFSQYLQKCSYDEHAKLVQEVTDFAKTCVADESAANCDKSLHTLFGDKLCAIPNLRENYGELADCCTKQEPERNECFLQHKDDNPSLPPFERPEAEAMCTSFKENPTTFMGHYLHEVARRHPYFYAPELLYYAEQYNEILTQCCAEADKESCLTPKLDGVKEKALVSSVRQRMKCSSMQKFGERAFKAWAVARLSQTFPNADFAEITKLATDLTKVNKECCHGDLLECADDRAELAKYMCENQATISSKLQTCCDKPLLKKAHCLSEVEHDTMPADLPAIAADFVEDQEVCKNYAEAKDVFLGTFLYEYSRRHPDYSVSLLLRLAKKYEATLEKCCAEANPPACYGTVLAEFQPLVEEPKNLVKTNCDLYEKLGEYGFQNAILVRYTQKAPQVSTPTLVEAARNLGRVGTKCCTLPEDQRLPCVEDYLSAILNRVCLLHEKTPVSEHVTKCCSGSLVERRPCFSALTVDETYVPKEFKAETFTFHSDICTLPEKEKQIKKQTALAELVKHKPKATAEQLKTVMDDFAQFLDTCCKAADKDTCFSTEGPNLVTRCKDALA	63 nM
LAIR30.w.B F49S-MSA (other) QEGSLPDITIFPNSSLMISQGTFVTVVCSYSDKHDLYNMVRLEKDGSTSMEKSTEPYKTEDEFEIGPVNETITGHYSCIYSKGITWSERSKTLELKVIKENVIQTPAPGPTSDTSWLKTYSIYEAHKSEIAHRYNDLGEQHFKGLVLIAFSQYLQKCSYDEHAKLVQEVTDFAKTCVADESAANCDKSLHTLFGDKLCAIPNLRENYGELADCCTKQEPERNECFLQHKDDNPSLPPFERPEAEAMCTSFKENPTTFMGHYLHEVARRHPYFYAPELLYYAEQYNEILTQCCAEADKESCLTPKLDGVKEKALVSSVRQRMKCSSMQKFGERAFKAWAVARLSQTFPNADFAEITKLATDLTKVNKECCHGDLLECADDRAELAKYMCENQATISSKLQTCCDKPLLKKAHCLSEVEHDTMPADLPAIAADFVEDQEVCKNYAEAKDVFLGTFLYEYSRRHPDYSVSLLLRLAKKYEATLEKCCAEANPPACYGTVLAEFQPLVEEPKNLVKTNCDLYEKLGEYGFQNAILVRYTQKAPQVSTPTLVEAARNLGRVGTKCCTLPEDQRLPCVEDYLSAILNRVCLLHEKTPVSEHVTKCCSGSLVERRPCFSALTVDETYVPKEFKAETFTFHSDICTLPEKEKQIKKQTALAELVKHKPKATAEQLKTVMDDFAQFLDTCCKAADKDTCFSTEGPNLVTRCKDALA	130 nM
LAIR30.w.C E51G-MSA (other) QEGSLPDITIFPNSSLMISQGTFVTVVCSYSDKHDLYNMVRLEKDGSTFMGKSTEPYKTEDEFEIGPVNETITGHYSCIYSKGITWSERSKTLELKVIKENVIQTPAPGPTSDTSWLKTYSIYEAHKSEIAHRYNDLGEQHFKGLVLIAFSQYLQKCSYDEHAKLVQEVTDFAKTCVADESAANCDKSLHTLFGDKLCAIPNLRENYGELADCCTKQEPERNECFLQHKDDNPSLPPFERPEAEAMCTSFKENPTTFMGHYLHEVARRHPYFYAPELLYYAEQYNEILTQCCAEADKESCLTPKLDGVKEKALVSSVRQRMKCSSMQKFGERAFKAWAVARLSQTFPNADFAEITKLATDLTKVNKECCHGDLLECADDRAELAKYMCENQATISSKLQTCCDKPLLKKAHCLSEVEHDTMPADLPAIAADFVEDQEVCKNYAEAKDVFLGTFLYEYSRRHPDYSVSLLLRLAKKYEATLEKCCAEANPPACYGTVLAEFQPLVEEPKNLVKTNCDLYEKLGEYGFQNAILVRYTQKAPQVSTPTLVEAARNLGRVGTKCCTLPEDQRLPCVEDYLSAILNRVCLLHEKTPVSEHVTKCCSGSLVERRPCFSALTVDETYVPKEFKAETFTFHSDICTLPEKEKQIKKQTALAELVKHKPKATAEQLKTVMDDFAQFLDTCCKAADKDTCFSTEGPNLVTRCKDALA	170 nM
LAIR30.w.E F63L-MSA (other) QEGSLPDITIFPNSSLMISQGTFVTVVCSYSDKHDLYNMVRLEKDGSTFMEKSTEPYKTEDELEIGPVNETITGHYSCIYSKGITWSERSKTLELKVIKENVIQTPAPGPTSDTSWLKTYSIYEAHKSEIAHRYNDLGEQHFKGLVLIAFSQYLQKCSYDEHAKLVQEVTDFAKTCVADESAANCDKSLHTLFGDKLCAIPNLRENYGELADCCTKQEPERNECFLQHKDDNPSLPPFERPEAEAMCTSFKENPTTFMGHYLHEVARRHPYFYAPELLYYAEQYNEILTQCCAEADKESCLTPKLDGVKEKALVSSVRQRMKCSSMQKFGERAFKAWAVARLSQTFPNADFAEITKLATDLTKVNKECCHGDLLECADDRAELAKYMCENQATISSKLQTCCDKPLLKKAHCLSEVEHDTMPADLPAIAADFVEDQEVCKNYAEAKDVFLGTFLYEYSRRHPDYSVSLLLRLAKKYEATLEKCCAEANPPACYGTVLAEFQPLVEEPKNLVKTNCDLYEKLGEYGFQNAILVRYTQKAPQVSTPTLVEAARNLGRVGTKCCTLPEDQRLPCVEDYLSAILNRVCLLHEKTPVSEHVTKCCSGSLVERRPCFSALTVDETYVPKEFKAETFTFHSDICTLPEKEKQIKKQTALAELVKHKPKATAEQLKTVMDDFAQFLDTCCKAADKDTCFSTEGPNLVTRCKDALA	96 nM
LAIR30.d.D E43A-MSA (other) QEGSLPDITIFPNSSLMISQGTFVTVVCSYSDKHDLYNMVRLAKDGSTFMEKSTEPYKTEDEFEIGPVNETITGHYSCIYSKGITWSERSKTLELKVIKENVIQTPAPGPTSDTSWLKTYSIYEAHKSEIAHRYNDLGEQHFKGLVLIAFSQYLQKCSYDEHAKLVQEVTDFAKTCVADESAANCDKSLHTLFGDKLCAIPNLRENYGELADCCTKQEPERNECFLQHKDDNPSLPPFERPEAEAMCTSFKENPTTFMGHYLHEVARRHPYFYAPELLYYAEQYNEILTQCCAEADKESCLTPKLDGVKEKALVSSVRQRMKCSSMQKFGERAFKAWAVARLSQTFPNADFAEITKLATDLTKVNKECCHGDLLECADDRAELAKYMCENQATISSKLQTCCDKPLLKKAHCLSEVEHDTMPADLPAIAADFVEDQEVCKNYAEAKDVFLGTFLYEYSRRHPDYSVSLLLRLAKKYEATLEKCCAEANPPACYGTVLAEFQPLVEEPKNLVKTNCDLYEKLGEYGFQNAILVRYTQKAPQVSTPTLVEAARNLGRVGTKCCTLPEDQRLPCVEDYLSAILNRVCLLHEKTPVSEHVTKCCSGSLVERRPCFSALTVDETYVPKEFKAETFTFHSDICTLPEKEKQIKKQTALAELVKHKPKATAEQLKTVMDDFAQFLDTCCKAADKDTCFSTEGPNLVTRCKDALA	220 nM
